{
  "source": "the DeepSol protein solubility set",
  "data": [
    {"test": "soluble on expression in E. coli; label from the status in PepcDB or PDB records", "values": [
      {"sequence": "MSFKVISTGPQAIFQDRGRFGFASAGVGTSGSFDRLSAARANHALGNDPNATVVEILLGGFEVEALHTTSIVFTGTEAEVMVRTAGGQSKNATTNTIIDVAAGERIRVEPATYGMRAYFAARGGFAVEKTLGSASTDLISHMGPRPIEPGDVIDVATDIADSQWWPKLRQLPTLWKRMPTETLTVIRGPRDKWFTQESLNNFFTQVFTVSNDSNRIGLRMHSSEPIQHRVEGELKSEGMVRGSIQIPPGGNPVVFGPDHPVTGGYPVIAVLTSRSCDRSAQLLPGDKVRFKLL", "soluble on expression in E. coli": "not soluble"},
      {"sequence": "ATYAAASSALVPRGSHMYAPKLQGPVAVYTWEGNQVNITCEVFAYPSATISWFRDGQLLPSSNYSNIKIYNTPSASYLEVTPDSENDFGNYNCTAVNRIGQESLEFILVQADTPSSPSIDQVEPYSSTAQVQFDEPEATGGVPILKYKAEWRAVGEEVWHSKWYDAKEASMEGIVTIVGLKPETTYAVRLAALNGKGLGEISAASEFKTQPVQGE", "soluble on expression in E. coli": "soluble"},
      {"sequence": "MEGVMGQVEKRPISTIVFIVAMQKEAQPLINRLRLVEEVNTPFPKEVTWIMFKGMYKDLNINIVCPGKDSTLGVESVGTVPASLVTYASILAIQPDLIINAGTAGGFKAKGACISDVYVVSTVAFHDRRIPVPVLDIYGVGMRNTFPTPNLIKELNLKVGRLSTGDSMDMSPHDEESITANDATVKDMEGAAVAYVADIFKVPTILIKGVTDIVDGNRPTSEEFLENLAAVTAKLDESLTKVIDFISGKCLSDL", "soluble on expression in E. coli": "soluble"},
      {"sequence": "MLTYIILVLHLQNHVWEDVTVHNSSLPPLAIKHPECLGLLHQLERSTDVWIQHYCILKDGCLYFYASIRSTQASGGLYLQGYSVSEQTHGFEQPVIELKPSSEEFKTFYFCAENKTENQRWIAALKTSIKKWLPLDQAIQEFMSRPLEETRM", "soluble on expression in E. coli": "not soluble"},
      {"sequence": "MGSDKIHHHHHHMMKSIILIVLDGLGDRPGSDLQNRTPLQAAFRPNLNWLASHGINGIMHPISPGIRCGSDTSHMSLLGYDPKVYYPGRGPFEALGLGMDIRPGDLAFRANFATNRDGVIVDRRAGRENKGNEELADAISLDMGEYSFRVKSGVEHRAALVVSGPDLSDMIGDSDPHREGLPPEKIRPTDPSGDRTAEVMNAYLEEARRILSDHRVNKERVKNGRLPGNELLVRSAGKVPAIPSFTEKNRMKGACVVGSPWLKGLCRLLRMDVFDVPGATGTVGSNYRGKIEKAVDLTSSHDFVLVNIKATDVAGHDGNYPLKRDVIEDIDRAMEPLKSIGDHAVICVTGDHSTPCSFKDHSGDPVPIVFYTDGVMNDGVHLFDELSSASGSLRITSYNVMDILMQLAGRSDKFGS", "soluble on expression in E. coli": "not soluble"},
      {"sequence": "MSLSDLHTKYMGLTLRSPLVASAGPIQQKVDGVRALADAGVGAIVMYSLFEEQVRHEEARQAEIELEYMDSFAESLSFFPTVASNEGGITERYLAHLEASANAVDIPVIASLNGATNGGWVDTAKRMENAGAAGIECNIYMVPGDLEQSAEEVEDRHVEIVQAVKDAVSVPVAVKLSPFFSALGNMATRLDAAGADALVMFNRFLQPDINVETMQVEPGVWLSSPADARLPLTWIAVLSGRIGASLAASSGVESANDVVKYLLAGADVVMTTSALVRHGAGYATELQKGLESYLQRKEVDLDTLRGTLAVPNDASTAEYERNGYVAALEKAKTTYGEGHHHHHH", "soluble on expression in E. coli": "not soluble"},
      {"sequence": "SNAMEVMLMSKYATLKYADKNIEIELPVYSPSLGNDCIDVSSLVKHGIFTYDPGFMSTAACESKITYIDGGKGVLLHRGYPIEEWTQKSNYRTLCYALIYGELPTDEQVKSFRQEIINKMPVCEHVKAAIAAMPQHTHPMSSLIAGVNVLAAEHIHNGQKESQDEVAKNIVAKIATIAAMAYRHNHGKKFLEPKMEYGYAENFLYMMFADDESYKPDELHIKAMDTIFMLHADHEQNASTSTVRLSGSTGNSPYAAIIAGITALWGPAHGGANEAVLKMLSEIGSTENIDKYIAKAKDKDDPFRLMGFGHRVYKNTDPRATAMKKNCEEILAKLGHSDNPLLTVAKKLEEIALQDEFFIERKLFSNVDFYSGIILKAMGIPEDMFTAIFALARTSGWISQWIEMVNDPAQKIGRPRQLYTGATNRNF", "soluble on expression in E. coli": "soluble"},
      {"sequence": "MLLEISIYCRGGQGGVTAARILAATAMLQGYYSQSMPQFGPERRGAEVRAFLRISDERIRRKCPITYPDVVILFDLKLSFNGNPETVVVNCNGSSFTGHGNVFALDATEITRRYGLVNAGWPILGPAMAGTAAKALDLDPRCLLEAIRLELGDKADRSVKAAEEAYRVVECV", "soluble on expression in E. coli": "not soluble"},
      {"sequence": "MGSDKIHHHHHHMSLFAALRLPREILFGKGQRHALSTVAGRFGRHALVCTDERFAGTAVFAEIVQSLQAASIEVLVHDRVLPDVPRDSVGICVDEAEKFQPEMVIGIGGGSCLDFAKCADLLLSHGGKLQDYYGEFKVPGPTLPLIAVPTTAGTGSEVTPVAVISDPDRTLKVGISSPYLIAAVALCDPELTMTCPPALTAIAGADALTHAIEAFTAKQRGEDPSLAQQHVFIGKTALTDHFALLAIKLLGRSLEKACTDGTDADARADVMMGALAAGCAFGTAGTAAAHAVQYPAGALTHTAHGLGVATMMPYVMTYNSRVVAAEMAEIGDALGLEAKGRSAEEMADATIKEIRRLFTAIGITPTLADLGLPADKLDWTADQALGIDRLIKNNPRPFDLTAMRRLVQAAHDGDLAACAM", "soluble on expression in E. coli": "not soluble"},
      {"sequence": "MLNITEDEIDSISLLNNPLKDPSKRSIIIIDHSRNDRSPILIGLQGFFGTNRSFMNRYFNKVDFISVLEKIAEKAENDGFIIALPDTMTSLYGNQYINSPAVGNYEDFIVSDVLEYLFKRYGKRPVGLFGKSSGGFGAYTLAVRHPDKISGFVDVAGDSGFEYCYLPDFPAAIKYFRRYGVLEWYTYVKSKMNMSPEDMKVVNVLAMSAFYSPDQEAEMGIGLPFDTRTGLLKYDVWDKWRRLDPAFNISNNIDVLKDMAVFMQVGSRDDFHIDIGMEAMHNFLEKNGIVHFFETYDETHFDLDYLYLKSLPLLIELISD", "soluble on expression in E. coli": "not soluble"},
      {"sequence": "MEDENILRNAVNLQVLKFHYPEIESIIDIASHVAVYQFDVGSQKWLKTSIEGTFFLVKDQRARVGYVILNRNSPENLYLFINHPSNVHLVDRYLIHRTENQHVVGLWMFDPNDMSRIFNIVKESLLR", "soluble on expression in E. coli": "soluble"},
      {"sequence": "SMLSAASRVVSRAAVHCALRSPPPEARALAMSRPPPPRVASVLGTMEMGRRMDAPASAAAVRAFLERGHTELDTAFMYSDGQSETILGGLGLGLGGGDCRVKIATKANPWDGKSLKPDSVRSQLETSLKRLQCPQVDLFYLHAPDHGTPVEETLHACQRLHQEGKFVELGLSNYASWEVAEICTLCKSNGWILPTVYQGMYNATTRQVETELFPCLRHFGLRFYAYNPLAGGLLTGKYKYEDKDGKQPVGRFFGNSWAETYRNRFWKEHHFEAIALVEKALQAAYGASAPSVTSAALRWMYHHSQLQGAHGDAVILGMSSLEQLEQNLAATEEGPLEPAVVDAFNQAWHLVAHECPNYFR", "soluble on expression in E. coli": "soluble"},
      {"sequence": "MKKLVLIGGGYGNMRVLHRLLPNQLPDDVSITLIDRNPYHCLKTEYYALAAGTISDHHIRVSFPEHPRLDVQYGDITSIDIVQKQVLFQDREPISYDDAIIGLGCEDKYHNVPGAPEFTYSIQTIDQSRETYQKLNNLSANATVAIVGAGLSGVELASELRESRDDLNIILFDRGNLILSSFPERLSKYVQKWFEEHGVRIINRANITKVEEGVVYNHDDPISADAIVWTAGIQPNKVVRDLDVEKDAQGRIVLTPHHNLPGDEHLYVVGDCASLPHAPSAQLAEAQAEQIVQILQKRWNGEALPESMPQFKLKGVLGSTRK", "soluble on expression in E. coli": "soluble"},
      {"sequence": "MHHHHHHSSGVDLGTENLYFQSMGNKYIQQTKPLTLERTINLYPLTNYTFGTKEPLYEKDSSVAARFQRMREEFDKIGMRRTVEGVLIVHEHRLPHVLLLQLGTTFFKLPGGELNPGEDEVEGLKRLMTEILGRQDGVLQDWVIDDCIGNWWRPNFEPPQYPYIPAHITKPKEHKKLFLVQLQEKALFAVPKNYKLVAAPLFELYDNAPGYGPIISSLPQLLSRFNFIYN", "soluble on expression in E. coli": "soluble"},
      {"sequence": "MGSDKIHHHHHHMKIAVVGAGLTGLKTAKELAEHAKVVVFEPDDVGGLVATFREFSIEKFYHHCFRDDAFLLEEIKRCGLKSKLVWKIAKTGFAANGKIYPLNTPFEILRYPLLTFGEKIRLARFTLKSRKLNYEDFDDVGVSEGIREELGEGLLERFFMPLLRSKFGENAEKVSYAWLLGRVAIRSNRKYSGEEIGYIRHGFQQLVDKMAEGLEIRRERARIRKNARWDVNGEDFDAVVYTAPLSELGELAEKLGIPEVRYQSSVCALIGAEETLTENIYWTNIADKMSFGAVIEHTNFMPFEDYGIHLMYLAAYSTPDGWLFNLSDKEIEKLFLSDLRKLGFKTESVRFVRVFKAKYSGPIYEKGYRRKITPYRVAEGFYVAGMTSRPNYPERSMNGSIRAGKEVAEQVKEDLL", "soluble on expression in E. coli": "not soluble"},
      {"sequence": "MSLEKWRIYEELTNAVREFESINPVRLIPEVGTNFVYSLPLPYARSTKDVAGVKGRIVKYGNSVKAVGPVEFGASDHLARAVLTYMRFYPEYRSAINIRYSREIIEEIIEIAQERGFKVSFYDRREEPEEIKAKEGATIPWGIETAIKRIKERPDIIYHLGDVGKEPMILVFGRNPREVLEKIKMLIEGHHHHHH", "soluble on expression in E. coli": "soluble"},
      {"sequence": "MGSDKIHHHHHHATPAEIPFDAVLAGQTPMLFKGLVRDWPLVQAGLGSPQAARDYIRAHDRGVPVVGYTGDPAIKGRFFYNDTLTGLNFKAERAPLEAFLGRIEAVEGQENAPAIYIGSTDLDAYFPSLKAENDLGLGPEVYGPQPPMAGIWLGNRTVAAAHYDMSNNIAVCAVGRRRFTLFPPDQVANLYPGPLEPTPGGQVVSMVDFETPDFDRHPRFREALASAQVAEMEPGDVLVYPALWWHQVEALDGFNVLMNYWWNATPAFVDTPMTTLLHGLLSLRDRPDFEKQGWKALFDYYVFGPAERAGAHLPDDARGPLGALDDLKARRLRAWLLDRLNR", "soluble on expression in E. coli": "not soluble"},
      {"sequence": "MDYYYSLISPPCQSAILLAKKLGITLNLKKTNVHDPVERDALTKLNPQHTIPTLVDNGHVVWESYAIVLYLVETYAKDDTLYPKDPKVRSVVNQRLFFDIGTLYKRIIDVIHLVMKKEQPSDEQMEKLKGALDLLEQFVTERAYAAADHLTVADICLLGTVTALNWLKHDLEPFPHIRAWLERVRAEMPDYEEFSKQVADDTLAYVASRK", "soluble on expression in E. coli": "soluble"},
      {"sequence": "MGSDKIHHHHHHMDRIGIDTWANISAEGWSSLLLGNGASIAIHKEFAYPTLHGIADAKGLLATTAPIFAKLGTTDFEHVLLACWYAEHVNGALGTPSAAISAAYEEVRTALIEAVHSVHPVHADVAADLQRVGAFASAFPTVVSLNYDITLYWAMLLFNAANGSWFKDAFHDGEFQTDWEYLRRPYGHAAGATLVFYPHGSLAVARDYLGDETKLSVGAGAAGDLLGTITRRWASGHYVPVFVSEGTSHQKVAAIRRSHYLTNVYEEVLPALGESLVVYGWSFDERDQHVLAAIAANPPKRMAVSVFTGQPDGDQQAFCLQVLKAVGRSLPGTEVTFFDSRSPGCWNNP", "soluble on expression in E. coli": "not soluble"},
      {"sequence": "MAYKSLLTVATSPERVEPAITVASRLALSSDAHLDVLALGIDGTQVAYYNMGGTAVVLQMALERAEQEAQAVEKAAAAALSAQPAMLRASVESAVAQMGGLAGLVALRSRFADLVVLSRPYGKGRGAETEAVVEAALFEGQAPVLVVPDDPALSERFGHRIVIAWDQSREALTAVRKAMPFLLRADNVDIVIVDPAAHGAERSDPGGALCQMLVRHGVRAEVSVLAKTMPRISDVIARHVRDQDADLLVMGAYGHSRFREAILGGATRDMLELAEVPVLMAH", "soluble on expression in E. coli": "not soluble"},
      {"sequence": "VGKTVKREYCHEENDEELRKAVHDACYDKSYAIAASGNRNKHERQDAFDAIRDEFKAQFSEEELEEKGALIDRYYHDVEKEAMRRCILDEGKRLDGRKTTEIRP", "soluble on expression in E. coli": "not soluble"}
    ]}
  ]
}
